Drawing on PMC7016869, this text covers Kd, percent monomer in solution (EOM/polydispersity analysis) and stoichiometry N for two substances.

pKd: −log10 of the molar value. Values joined by “and” are separate entries in the source; they are usually repeats but may differ in a detail not shown here. Equal entries are not always repeated.

Assay [1] addresses Exchange protein directly activated by cAMP 1 (EPAC1), recombinant full-length wild-type EPAC1B (human). Put plainly: MST; EPAC1-cAMP and Rap1; no further conditions told.
The target is the same in assay [2]. As to the kind of experiment: SAXS; EPAC1 with 1 mM cAMP, no Rap1b, 2.7 mg/mL, 10 mM Tris pH 9, 1 mM EDTA, 10 mM DTT, 500 mM NaCl; monomer to dimer.

Sequence of C-terminally truncated Rap1b (1-167) (P61224 1-167): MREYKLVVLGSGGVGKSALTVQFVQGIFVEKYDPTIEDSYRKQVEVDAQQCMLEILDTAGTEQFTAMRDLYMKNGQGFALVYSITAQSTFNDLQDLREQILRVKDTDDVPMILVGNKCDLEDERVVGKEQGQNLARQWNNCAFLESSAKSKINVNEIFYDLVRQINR

Regarding “C-terminally truncated Rap1b (1-167) (from UniProt P61224 1-167) (domain or fragment)”, the pKd (as a rule, the Kd on a negative log10 scale, so that one unit is a factor of ten) in assay [1] is 7.22 to 7.70. Consider “Exchange protein directly activated by cAMP 1 (EPAC1), recombinant full-length wild-type EPAC1B (natural protein)”, for which, in assay [2], the percent monomer in solution (EOM/polydispersity analysis) is 5 to 15%; the stoichiometry N (commonly a count of units in the complex or per binding partner) was 1.8 and 2.4 and 2.2.
